Consider one molecule from US20160137740A1 (AstraZeneca / MedImmune, published 2016).

One experiment concerns the target T1, Human OX40 (human, UniProt P43489 29-277).
T1 construct: also called CD134; TNFRSF4
T1 sequence: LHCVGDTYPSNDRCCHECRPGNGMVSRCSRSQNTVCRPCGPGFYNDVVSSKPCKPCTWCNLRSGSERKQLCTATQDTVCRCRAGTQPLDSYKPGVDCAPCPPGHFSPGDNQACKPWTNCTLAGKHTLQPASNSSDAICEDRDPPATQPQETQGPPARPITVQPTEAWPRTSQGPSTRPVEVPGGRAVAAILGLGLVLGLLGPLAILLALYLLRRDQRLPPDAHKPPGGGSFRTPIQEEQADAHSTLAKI
The experiment can be described thus: flow cytometry, equilibrium binding to activated primary human CD4+ T cells; apparent Kd, mean of 6 donors (StdErr). How it is done:
OX40mAb24 (10 μg/mL) or 9B12 (10 μg/mL) was diluted over a 17 point 2-fold dilution series. OX40mAb24 was added to 100,000 cells (activated primary CD4⁺ T cells or human OX40-overexpressing Jurkat NFkB-luciferase clone 64 cells) per well and incubated for one hour at 4° C. For background binding subtraction, cells were incubated in the presence of secondary antibody alone. […] Following secondary antibody incubation, cells were washed and suspended in 100 μL FACS buffer for flow cytometry analysis on a BD LSRII flow cytometer as described below.

In experiment [1] the target is T2, Recombinant human TNFRSF6 (FAS) (human, UniProt P25445 26-173).
T2 construct: Plate-adsorbed antigen of the ELISA
T2 sequence (looked up): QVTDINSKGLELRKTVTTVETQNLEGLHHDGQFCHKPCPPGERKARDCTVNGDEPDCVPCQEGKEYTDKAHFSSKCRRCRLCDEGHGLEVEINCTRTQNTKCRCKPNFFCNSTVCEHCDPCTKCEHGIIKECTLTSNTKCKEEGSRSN
The experiment can be described thus: ELISA, plate coated with a dilution series of the recombinant TNFRSF protein [panel B]. The procedure: (§1) An eight point, two-fold dilution series of each recombinant human TNFRSF protein was prepared after dilution of stock proteins to 5 μg/mL in PBS. Subsequently, 50 μL of each antigen dilution was transferred in duplicate to wells of a Nunc 96-well MaxiSorp flat bottom plate, and incubated overnight at 4° C. to adsorb proteins to the plate. Afterwards, plates were washed three times with PBS in a BioTek® plate washer to remove unbound protein. Anti OX40 mAb29, 9B12, and control antibodies were diluted in PBS to a final concentration of 10 μg/mL, and 50 μL of mAb were added to each well and incubated at room temperature for one hour to bind mAb to plate-bound protein. Thereafter, wells were washed with PBS/Tween-20 0.1% (volume/volume) using a BioTek® plate washer. HRP conjugated goat anti-human or goat anti-mouse secondary antibodies at 10 μg/mL was added to each well and incubated at room temperature for 1 hour. After three washes in PBS/Tween-20 0.1%, 50 μL of TMB substrate was added to each well and incubated at room temperature for 5 minutes to develop the colorimetric product. Reactions were stopped by adding 50 μL of 0.5 molar H₂SO₄ to wells, and plates read immediately at 450 nm using an Envision C plate reader for detection of the colorimetric product.
On the technique in general: In an ELISA, binding on a coated surface is turned into a signal by an enzyme label.

The target of experiment [2] is T3, Recombinant human TNFRSF21 (DR6) (human, UniProt O75509 42-349, limits assumed).
T3 construct: Plate-adsorbed antigen of the ELISA
T3 sequence (looked up): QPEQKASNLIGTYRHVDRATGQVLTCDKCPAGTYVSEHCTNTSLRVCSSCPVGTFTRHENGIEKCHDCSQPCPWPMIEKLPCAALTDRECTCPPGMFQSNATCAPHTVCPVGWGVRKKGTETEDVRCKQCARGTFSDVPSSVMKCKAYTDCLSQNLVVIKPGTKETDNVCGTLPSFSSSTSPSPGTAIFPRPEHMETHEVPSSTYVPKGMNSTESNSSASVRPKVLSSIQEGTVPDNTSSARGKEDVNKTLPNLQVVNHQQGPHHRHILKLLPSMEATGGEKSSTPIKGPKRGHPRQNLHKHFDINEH
The description is as above. How it is done:
as §1

In experiment [3] the target is T4, Recombinant human TNFRSF3 (LTβR) (human, UniProt P36941 28-227, limits assumed).
T4 construct: Plate-adsorbed antigen of the ELISA
T4 sequence (P36941 28-227 limits assumed): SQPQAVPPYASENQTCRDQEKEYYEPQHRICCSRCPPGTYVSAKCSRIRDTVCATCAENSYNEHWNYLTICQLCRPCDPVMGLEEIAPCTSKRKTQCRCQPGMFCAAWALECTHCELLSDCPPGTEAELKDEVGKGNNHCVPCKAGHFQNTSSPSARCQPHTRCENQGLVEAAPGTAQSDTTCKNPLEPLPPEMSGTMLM
Described as above. How it is done:
as §1

Experiment [4] deals with T5, Recombinant human TNFRSF11A (RANK) (human, UniProt Q9Y6Q6 30-212).
T5 construct: Plate-adsorbed antigen of the ELISA; also called CD265
T5 sequence (looked up): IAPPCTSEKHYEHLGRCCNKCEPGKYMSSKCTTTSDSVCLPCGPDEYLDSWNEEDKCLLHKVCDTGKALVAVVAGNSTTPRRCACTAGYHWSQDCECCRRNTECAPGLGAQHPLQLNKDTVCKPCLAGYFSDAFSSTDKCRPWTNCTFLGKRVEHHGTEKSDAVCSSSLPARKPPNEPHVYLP
The experiment is described as above. How it is done:
as §1

Experiment [5] concerns the target T6, Recombinant human TNFRSF11B (OPG) (human, UniProt O00300 22-401, limits assumed).
T6 construct: Plate-adsorbed antigen of the ELISA; also called osteoprotegerin
T6 sequence (looked up): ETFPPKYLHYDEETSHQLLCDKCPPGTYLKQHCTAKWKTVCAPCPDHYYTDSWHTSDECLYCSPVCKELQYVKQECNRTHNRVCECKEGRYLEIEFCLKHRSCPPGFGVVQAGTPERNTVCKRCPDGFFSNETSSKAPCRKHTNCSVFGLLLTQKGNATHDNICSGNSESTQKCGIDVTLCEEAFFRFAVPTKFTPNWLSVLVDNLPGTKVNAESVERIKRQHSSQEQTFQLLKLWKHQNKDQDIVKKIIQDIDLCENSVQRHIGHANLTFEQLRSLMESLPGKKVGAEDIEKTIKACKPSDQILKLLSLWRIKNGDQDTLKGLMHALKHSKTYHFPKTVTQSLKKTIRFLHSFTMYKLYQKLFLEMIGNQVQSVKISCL
The description is as above. The procedure: as §1

The target in experiment [6] is T7, Recombinant human TNFRSF9 (CD137) (human, UniProt Q07011 24-186, limits assumed).
T7 construct: Plate-adsorbed antigen of the ELISA
The description is as above. The procedure:
as §1

B1: 9B12 (antibody, mouse IgG1, V domains shown)
VH: EVQLQESGPSLVKPSQTLSLTCSVTGDSFTSGYWNWIRKFPGNRLEYMGYISYNGITYHNPSLKSRISITRDTSKNHYYLQLNSVTTEDTATYFCARYRYDYDGGHAMDYWGQGTLVTVSS
VL: DIQMTQTTSSLSASLGDRVTISCRASQDISNYLNWYQQKPDGTVKLLIYYTSKLHSGVPSRFSGSGSRTDYSLTITDLDQEDIATYFCQQGSALPWTFGQGTKVEIKR
notes: mouse IgG1 kappa; also called murine mAb 9B12; mouse anti-human OX40 IgG1κ monoclonal antibody
Regarding B1, the Kd in the experiment with Human OX40 came out at 0.669 nM. The binding result in experiment [1], in experiment [2], in experiment [3], in experiment [4], in experiment [5] and in experiment [6] was “no binding” in each case.
